For the assay, the system named is MCF-7 inducible ALT cells. The assay can be described thus: Mouse xenograft model, MCF7-ALT tumors. The class given is in vivo, NOD/SCID mice. Conditions: day 17; start volume 200 mm3; Palbociclib 100 mg/kg daily gavage, doxycycline 0.1 mg/ml in drinking water. The procedure:
FIG. 14: ALT slows tumor growth in animals, and ALT and PD dual treatment causes tumor regression. MCF-7 inducible ALT cells were injected into the 4th mammary gland of NOD/SCID mice. Tumors were allowed to develop to a volume of 200 mm3, before treatment. Vehicle: daily gavage with PBS. PD: Daily gavage of Palbociclib 100 mg/kg. Doxy: 0.1 mg/ml doxycycline added to the drinking water to allow continuous uptake and induction of ALT in the human cancer cells. Doxy+PD: Daily gavage of Palbociclib 100 mg/kg and 0.1 mg/ml doxycycline added to the drinking water. Vehicle treated animals rapidly progressed and by 17 days, tumor volumes were >3000 mm PD treatment slowed down tumor growth but by day 17, tumors were >2500. […] However, dual ALT and PD (doxy/PD) treatment, caused tumor regression by […] (e.g., from 200 mm3 down to 0-40 mm3), by day 5, which was durable up to day 19.
NP-ALT was added to cell media in the absence of fetal bovine serum for 6 hours. This media was removed and replaced with FBS+media, and cells were allowed to recover for 2 days, at which time, cell counts were determined. Counts were standardized to the proliferation seen in the NO FBS untreated control. • Expression in vivo. […] Tumor volume was monitored every other day using digital calipers. […] Doxy+PD: Daily gavage of Palbociclib 100 mg/kg and 0.1 mg/ml doxycycline added to the drinking water. • Quantitative RT-PCR. […]

B1: Alt-Brk: alternative splice variant of Brk (SEQ ID NO: 17), 15 KD protein with SH3 domain, lacks kinase domain (protein, listed as Homo sapiens)
chain: MVSRDQAHLGPKYVGLWDFKSRTDEELSFRAGDVFHVARKEEQWWWATLLDEAGGAVAQGYVPHNYLAERETVESEPAGHAGCAALQDLAACRGPAAPERGGVLPQPARACELPQGPEPVPRPAAGRALPEARA
Turning to B1, the tumor volume is on record as roughly 1500 mm3.

(Values after patent publication US11260100B2, “Compositions targeting the interaction domain between p27Kip1 and Brk and methods of use thereof to inhibit p27 Y phosphorylation and cdk4 activity” (The Research Foundation for the State University of New York, priority 2014, dated 2022).)
